{"source": "patent US20140303084A1", "about": "(Biogen, published 2014)", "binders": {"B1": {"name": "SKQGRPISPDrRAAGKLTCLASYCWLFWTGI (peptide)", "peptide": "SKQGRPISPD[dR]RAAGKLTCLASYCWLFWTGI", "modifications": "not fully specified; printed as SKQGRPISPDrRAAGKLTCLASYCWLFWTGI; cysteine pairing not given here"}, "B2": {"name": "SKQGRPISPDrRAAGKLTCLASYCWLFWTG (peptide)", "peptide": "SKQGRPISPD[dR]RAAGKLTCLASYCWLFWTG", "modifications": "not fully specified; printed as SKQGRPISPDrRAAGKLTCLASYCWLFWTG; cysteine pairing not given here"}, "B3": {"name": "SKQGRPISPDrRAAGKLTCLASYCWLFWT (peptide)", "peptide": "SKQGRPISPD[dR]RAAGKLTCLASYCWLFWT", "modifications": "not fully specified; printed as SKQGRPISPDrRAAGKLTCLASYCWLFWT; cysteine pairing not given here"}, "B4": {"name": "SKQGRPISPDrRAAGKLTCLASYCWLFW (peptide)", "peptide": "SKQGRPISPD[dR]RAAGKLTCLASYCWLFW", "modifications": "not fully specified; printed as SKQGRPISPDrRAAGKLTCLASYCWLFW; cysteine pairing not given here"}, "B5": {"name": "AKQGRPISPDrRAAGKLTCLASYCWLFWTGIA (peptide)", "peptide": "AKQGRPISPD[dR]RAAGKLTCLASYCWLFWTGIA", "modifications": "not fully specified; printed as AKQGRPISPDrRAAGKLTCLASYCWLFWTGIA; cysteine pairing not given here"}, "B6": {"name": "SAQGRPISPDrRAAGKLTCLASYCWLFWTGIA (peptide)", "peptide": "SAQGRPISPD[dR]RAAGKLTCLASYCWLFWTGIA", "modifications": "not fully specified; printed as SAQGRPISPDrRAAGKLTCLASYCWLFWTGIA; cysteine pairing not given here"}, "B7": {"name": "SKAGRPISPDrRAAGKLTCLASYCWLFWTGIA (peptide)", "peptide": "SKAGRPISPD[dR]RAAGKLTCLASYCWLFWTGIA", "modifications": "not fully specified; printed as SKAGRPISPDrRAAGKLTCLASYCWLFWTGIA; cysteine pairing not given here"}, "B8": {"name": "SKQARPISPDrRAAGKLTCLASYCWLFWTGIA (peptide)", "peptide": "SKQARPISPD[dR]RAAGKLTCLASYCWLFWTGIA", "modifications": "not fully specified; printed as SKQARPISPDrRAAGKLTCLASYCWLFWTGIA; cysteine pairing not given here"}, "B9": {"name": "SKQGAPISPDrRAAGKLTCLASYCWLFWTGIA (peptide)", "peptide": "SKQGAPISPD[dR]RAAGKLTCLASYCWLFWTGIA", "modifications": "not fully specified; printed as SKQGAPISPDrRAAGKLTCLASYCWLFWTGIA; cysteine pairing not given here"}, "B10": {"name": "SKQGRAISPDrRAAGKLTCLASYCWLFWTGIA (peptide)", "peptide": "SKQGRAISPD[dR]RAAGKLTCLASYCWLFWTGIA", "modifications": "not fully specified; printed as SKQGRAISPDrRAAGKLTCLASYCWLFWTGIA; cysteine pairing not given here"}, "B11": {"name": "SKQGRPIAPDrRAAGKLTCLASYCWLFWTGIA (peptide)", "peptide": "SKQGRPIAPD[dR]RAAGKLTCLASYCWLFWTGIA", "modifications": "not fully specified; printed as SKQGRPIAPDrRAAGKLTCLASYCWLFWTGIA; cysteine pairing not given here"}}, "note": "Square brackets hold non-standard residues; d marks the D form. Primed or numbered codes have the meaning given here. Side chains are listed from the residue outwards. Ends that are not written are not given here. * marks the point of attachment. Biotin = O=C1N[C@H]2[C@H](CS[C@H]2CCCCC(=O)*)N1; PEG2(3) = PEG2 spacer carrying biotin on Lys"}
{"biological_target": "human Factor IXa (human, UniProt P00740 47-191; P00740 227-461)", "assay": "cell-based or functional assay", "units": {"EC50 [µM], FXa generation assay": "µM"}}
{"binder": "RRFVGGSLSQRRAPGKLTCLASYCWLFWTGIA", "note": "[RRFVGGSLSQ RRAPG KLTCLASYCWLFWTGIA]", "EC50 [µM], FXa generation assay": "< 0.5"}
{"binder": "SKQGRPISPDRRAAGKLTCLASYCWLFWTGIA[PEG2(3)]K([PEG2(3)-Biotin]) (cysteine pairing not given here)", "note": "[SKQGRPISPDRRAAGKLTCLASYCWLFWTGIA-PEG2-K(PEG2-Biotin)]", "EC50 [µM], FXa generation assay": "> 1"}
{"binder": "B1", "EC50 [µM], FXa generation assay": "< 0.5"}
{"binder": "B2", "EC50 [µM], FXa generation assay": "< 0.5"}
{"binder": "B3", "EC50 [µM], FXa generation assay": "< 0.5"}
{"binder": "B4", "EC50 [µM], FXa generation assay": "< 0.5"}
{"binder": "B5", "EC50 [µM], FXa generation assay": "< 0.5"}
{"binder": "B6", "EC50 [µM], FXa generation assay": "< 0.5"}
{"binder": "B7", "EC50 [µM], FXa generation assay": "< 0.5"}
{"binder": "B8", "EC50 [µM], FXa generation assay": "> 1"}
{"binder": "B9", "EC50 [µM], FXa generation assay": "< 0.5"}
{"binder": "B10", "EC50 [µM], FXa generation assay": "> 1"}
{"binder": "B11", "EC50 [µM], FXa generation assay": "< 0.5"}
